Starred links: 1 amine or outer side, 2 acyl side, 3 side chain; linkers in the order of their positions; H or OH if unused. Non-standard residues stand in square brackets, D forms with d. Primed or numbered codes have the meaning given here. *: point of attachment. dBip = N[C@H](Cc1ccc(-c2ccccc2)cc1)C(=O)O; Oic = O=C(O)[C@@H]1C[C@@H]2CCCC[C@@H]2N1; Phe(4-Cl) = N[C@@H](Cc1ccc(Cl)cc1)C(=O)O; Phe(4-I) = N[C@@H](Cc1ccc(I)cc1)C(=O)O; γGlu = O=C(O)[C@H](CCC(=O)[*:2])N[*:1]; Tridecanoyl = CCCCCCCCCCCCC(=O)*; hArg = N=C(N)NCCCC[C@H](N)C(=O)O; Cha = N[C@@H](CC1CCCCC1)C(=O)O; NMeL = CN[C@@H](CC(C)C)C(=O)O; Nle = CCCC[C@H](N)C(=O)O; Pip′ = not defined here; AEEA = NCCOCCOCC(=O)O
T1: rat APJ receptor (rat, UniProt Q9JHG3 1-377)
T1 sequence (looked up): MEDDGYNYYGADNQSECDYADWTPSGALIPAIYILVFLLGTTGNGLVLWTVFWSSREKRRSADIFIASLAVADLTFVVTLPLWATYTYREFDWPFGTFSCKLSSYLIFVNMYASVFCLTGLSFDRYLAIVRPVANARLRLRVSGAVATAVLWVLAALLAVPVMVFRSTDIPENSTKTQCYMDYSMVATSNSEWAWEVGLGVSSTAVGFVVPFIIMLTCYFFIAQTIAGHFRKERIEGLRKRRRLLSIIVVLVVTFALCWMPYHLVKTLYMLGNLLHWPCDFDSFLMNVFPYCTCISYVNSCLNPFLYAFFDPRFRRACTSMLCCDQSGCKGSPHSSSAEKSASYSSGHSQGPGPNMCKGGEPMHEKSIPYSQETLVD

T2: human APJ receptor (human, UniProt P35414 1-380)
T2 sequence (looked up): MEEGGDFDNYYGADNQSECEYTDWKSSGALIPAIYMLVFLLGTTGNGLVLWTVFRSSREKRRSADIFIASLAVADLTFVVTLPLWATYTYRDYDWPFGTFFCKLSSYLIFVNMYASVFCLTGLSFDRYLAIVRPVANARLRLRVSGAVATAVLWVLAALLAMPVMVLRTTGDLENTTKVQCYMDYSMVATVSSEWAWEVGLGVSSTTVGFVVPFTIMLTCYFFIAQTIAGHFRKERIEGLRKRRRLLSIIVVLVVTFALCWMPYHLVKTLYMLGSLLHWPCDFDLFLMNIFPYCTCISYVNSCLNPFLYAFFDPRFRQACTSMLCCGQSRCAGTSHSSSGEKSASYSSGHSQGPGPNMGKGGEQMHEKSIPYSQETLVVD

B1: Apelin polypeptide SEQ ID NO: 344 (peptide)
peptide: Tridecanoyl-[γGlu][AEEA][AEEA]RQRP[Nle][Cha]AHKG[Oic][Nle]P[Phe(4-Cl)]-OH
SMILES: CCCCCCCCCCCCC(=O)N[C@@H](CCC(=O)NCCOCCOCC(=O)NCCOCCOCC(=O)N[C@@H](CCCNC(=N)N)C(=O)N[C@@H](CCC(N)=O)C(=O)N[C@@H](CCCNC(=N)N)C(=O)N1CCC[C@H]1C(=O)N[C@@H](CCCC)C(=O)N[C@@H](CC1CCCCC1)C(=O)N[C@@H](C)C(=O)N[C@@H](Cc1c[nH]cn1)C(=O)N[C@@H](CCCCN)C(=O)NCC(=O)N1[C@H](C(=O)N[C@@H](CCCC)C(=O)N2CCC[C@H]2C(=O)N[C@@H](Cc2ccc(Cl)cc2)C(=O)O)C[C@@H]2CCCC[C@@H]21)C(=O)O
B2: Apelin polypeptide SEQ ID NO: 336 (peptide)
peptide: Tridecanoyl-[γGlu][AEEA][AEEA]RQRP[hArg][Cha]SH[Nle]G[Oic][Nle]P[Phe(4-Cl)]-OH
SMILES: CCCCCCCCCCCCC(=O)N[C@@H](CCC(=O)NCCOCCOCC(=O)NCCOCCOCC(=O)N[C@@H](CCCNC(=N)N)C(=O)N[C@@H](CCC(N)=O)C(=O)N[C@@H](CCCNC(=N)N)C(=O)N1CCC[C@H]1C(=O)N[C@@H](CCCCNC(=N)N)C(=O)N[C@@H](CC1CCCCC1)C(=O)N[C@@H](CO)C(=O)N[C@@H](Cc1c[nH]cn1)C(=O)N[C@@H](CCCC)C(=O)NCC(=O)N1[C@H](C(=O)N[C@@H](CCCC)C(=O)N2CCC[C@H]2C(=O)N[C@@H](Cc2ccc(Cl)cc2)C(=O)O)C[C@@H]2CCCC[C@@H]21)C(=O)O
B3: Apelin polypeptide SEQ ID NO: 345 (peptide)
peptide: Tridecanoyl-[γGlu][AEEA][AEEA]RQRP[Nle][Cha]AAKG[Oic][Nle]P[Phe(4-Cl)]-OH
SMILES: CCCCCCCCCCCCC(=O)N[C@@H](CCC(=O)NCCOCCOCC(=O)NCCOCCOCC(=O)N[C@@H](CCCNC(=N)N)C(=O)N[C@@H](CCC(N)=O)C(=O)N[C@@H](CCCNC(=N)N)C(=O)N1CCC[C@H]1C(=O)N[C@@H](CCCC)C(=O)N[C@@H](CC1CCCCC1)C(=O)N[C@@H](C)C(=O)N[C@@H](C)C(=O)N[C@@H](CCCCN)C(=O)NCC(=O)N1[C@H](C(=O)N[C@@H](CCCC)C(=O)N2CCC[C@H]2C(=O)N[C@@H](Cc2ccc(Cl)cc2)C(=O)O)C[C@@H]2CCCC[C@@H]21)C(=O)O
B4: Apelin polypeptide SEQ ID NO: 339 (peptide)
peptide: Tridecanoyl-[γGlu][AEEA][AEEA]RQ[Nle]P[hArg][Cha]SHKG[Oic][Nle]P[Phe(4-Cl)]-OH
SMILES: CCCCCCCCCCCCC(=O)N[C@@H](CCC(=O)NCCOCCOCC(=O)NCCOCCOCC(=O)N[C@@H](CCCNC(=N)N)C(=O)N[C@@H](CCC(N)=O)C(=O)N[C@@H](CCCC)C(=O)N1CCC[C@H]1C(=O)N[C@@H](CCCCNC(=N)N)C(=O)N[C@@H](CC1CCCCC1)C(=O)N[C@@H](CO)C(=O)N[C@@H](Cc1c[nH]cn1)C(=O)N[C@@H](CCCCN)C(=O)NCC(=O)N1[C@H](C(=O)N[C@@H](CCCC)C(=O)N2CCC[C@H]2C(=O)N[C@@H](Cc2ccc(Cl)cc2)C(=O)O)C[C@@H]2CCCC[C@@H]21)C(=O)O
B5: Apelin polypeptide SEQ ID NO: 340 (peptide)
peptide: Tridecanoyl-[γGlu][AEEA][AEEA]RQRP[hArg][Cha]SA[Nle]G[Oic][Nle]P[Phe(4-Cl)]-OH
SMILES: CCCCCCCCCCCCC(=O)N[C@@H](CCC(=O)NCCOCCOCC(=O)NCCOCCOCC(=O)N[C@@H](CCCNC(=N)N)C(=O)N[C@@H](CCC(N)=O)C(=O)N[C@@H](CCCNC(=N)N)C(=O)N1CCC[C@H]1C(=O)N[C@@H](CCCCNC(=N)N)C(=O)N[C@@H](CC1CCCCC1)C(=O)N[C@@H](CO)C(=O)N[C@@H](C)C(=O)N[C@@H](CCCC)C(=O)NCC(=O)N1[C@H](C(=O)N[C@@H](CCCC)C(=O)N2CCC[C@H]2C(=O)N[C@@H](Cc2ccc(Cl)cc2)C(=O)O)C[C@@H]2CCCC[C@@H]21)C(=O)O
B6: Apelin polypeptide SEQ ID NO: 351 (peptide)
peptide: Tridecanoyl-[γGlu][AEEA][AEEA]RQRP[hArg][Cha]AA[Nle]G[Oic][Nle]P[Phe(4-Cl)]-OH
SMILES: CCCCCCCCCCCCC(=O)N[C@@H](CCC(=O)NCCOCCOCC(=O)NCCOCCOCC(=O)N[C@@H](CCCNC(=N)N)C(=O)N[C@@H](CCC(N)=O)C(=O)N[C@@H](CCCNC(=N)N)C(=O)N1CCC[C@H]1C(=O)N[C@@H](CCCCNC(=N)N)C(=O)N[C@@H](CC1CCCCC1)C(=O)N[C@@H](C)C(=O)N[C@@H](C)C(=O)N[C@@H](CCCC)C(=O)NCC(=O)N1[C@H](C(=O)N[C@@H](CCCC)C(=O)N2CCC[C@H]2C(=O)N[C@@H](Cc2ccc(Cl)cc2)C(=O)O)C[C@@H]2CCCC[C@@H]21)C(=O)O
B7: Apelin polypeptide SEQ ID NO: 335 (peptide)
peptide: Tridecanoyl-[γGlu][AEEA][AEEA]RQRP[Nle][Cha]SHKG[Oic][Nle]P[Phe(4-Cl)]-OH
SMILES: CCCCCCCCCCCCC(=O)N[C@@H](CCC(=O)NCCOCCOCC(=O)NCCOCCOCC(=O)N[C@@H](CCCNC(=N)N)C(=O)N[C@@H](CCC(N)=O)C(=O)N[C@@H](CCCNC(=N)N)C(=O)N1CCC[C@H]1C(=O)N[C@@H](CCCC)C(=O)N[C@@H](CC1CCCCC1)C(=O)N[C@@H](CO)C(=O)N[C@@H](Cc1c[nH]cn1)C(=O)N[C@@H](CCCCN)C(=O)NCC(=O)N1[C@H](C(=O)N[C@@H](CCCC)C(=O)N2CCC[C@H]2C(=O)N[C@@H](Cc2ccc(Cl)cc2)C(=O)O)C[C@@H]2CCCC[C@@H]21)C(=O)O
B8: Apelin polypeptide SEQ ID NO: 316 (peptide)
peptide: Tridecanoyl-[γGlu][AEEA][AEEA][hArg][dR]Q[Nle]P[dR][NMeL]SHKG[Oic][Phe(4-I)]P[dBip]-OH
SMILES: CCCCCCCCCCCCC(=O)N[C@@H](CCC(=O)NCCOCCOCC(=O)NCCOCCOCC(=O)N[C@@H](CCCCNC(=N)N)C(=O)N[C@H](CCCNC(=N)N)C(=O)N[C@@H](CCC(N)=O)C(=O)N[C@@H](CCCC)C(=O)N1CCC[C@H]1C(=O)N[C@H](CCCNC(=N)N)C(=O)N(C)[C@@H](CC(C)C)C(=O)N[C@@H](CO)C(=O)N[C@@H](Cc1c[nH]cn1)C(=O)N[C@@H](CCCCN)C(=O)NCC(=O)N1[C@H](C(=O)N[C@@H](Cc2ccc(I)cc2)C(=O)N2CCC[C@H]2C(=O)N[C@H](Cc2ccc(-c3ccccc3)cc2)C(=O)O)C[C@@H]2CCCC[C@@H]21)C(=O)O
B9: Apelin polypeptide SEQ ID NO: 350 (peptide)
peptide: Tridecanoyl-[γGlu][AEEA][AEEA]RQRP[Nle][Cha]SAKG[Oic][Nle]P[Phe(4-Cl)]-OH
SMILES: CCCCCCCCCCCCC(=O)N[C@@H](CCC(=O)NCCOCCOCC(=O)NCCOCCOCC(=O)N[C@@H](CCCNC(=N)N)C(=O)N[C@@H](CCC(N)=O)C(=O)N[C@@H](CCCNC(=N)N)C(=O)N1CCC[C@H]1C(=O)N[C@@H](CCCC)C(=O)N[C@@H](CC1CCCCC1)C(=O)N[C@@H](CO)C(=O)N[C@@H](C)C(=O)N[C@@H](CCCCN)C(=O)NCC(=O)N1[C@H](C(=O)N[C@@H](CCCC)C(=O)N2CCC[C@H]2C(=O)N[C@@H](Cc2ccc(Cl)cc2)C(=O)O)C[C@@H]2CCCC[C@@H]21)C(=O)O
B10: Apelin polypeptide SEQ ID NO: 328 (peptide)
peptide: Tridecanoyl-[γGlu][AEEA][AEEA][hArg][dR]Q[Nle]P[dR][NMeL]SAKG[Oic][Phe(4-I)]P[dBip]-OH
SMILES: CCCCCCCCCCCCC(=O)N[C@@H](CCC(=O)NCCOCCOCC(=O)NCCOCCOCC(=O)N[C@@H](CCCCNC(=N)N)C(=O)N[C@H](CCCNC(=N)N)C(=O)N[C@@H](CCC(N)=O)C(=O)N[C@@H](CCCC)C(=O)N1CCC[C@H]1C(=O)N[C@H](CCCNC(=N)N)C(=O)N(C)[C@@H](CC(C)C)C(=O)N[C@@H](CO)C(=O)N[C@@H](C)C(=O)N[C@@H](CCCCN)C(=O)NCC(=O)N1[C@H](C(=O)N[C@@H](Cc2ccc(I)cc2)C(=O)N2CCC[C@H]2C(=O)N[C@H](Cc2ccc(-c3ccccc3)cc2)C(=O)O)C[C@@H]2CCCC[C@@H]21)C(=O)O

target: T1, rat APJ receptor; assay: cell-based or functional assay

EC50 Rat APJ Receptor (GTPγS assay) [nM]	Binder
5.58	B1
0.986	B2
5.79	B3
4.53	B4
0.676	B5
1.8	B6
0.964	B7
9.29	B8
0.624	B9
7.7	B10
2.82	Tridecanoyl-[γGlu][AEEA][AEEA][dR]QRP[hArg][NMeL]SHKG[Pip′][Phe(4-I)]P[dBip]-OH [Apelin polypeptide SEQ ID NO: 565]

target: T2, human APJ receptor; assay: cell-based or functional assay

EC50 Human APJ Receptor (GTPγS assay) [nM]	Binder
3.46	B1
0.714	B2
4.51	B3
2.55	B4
0.345	B5
1.59	B6
0.315	B7
6	B8
0.285	B9
9.17	B10
1.02	Tridecanoyl-[γGlu][AEEA][AEEA][dR]QRP[hArg][NMeL]SHKG[Pip′][Phe(4-I)]P[dBip]-OH [Apelin polypeptide SEQ ID NO: 565]

Source: patent US10941182 (Amgen, dated 2021)
